From patent publication US7504561B2, “GDC-1 genes conferring herbicide resistance” (Athenix Corporation, priority 2003, dated 2009)

Assay: Standard pyruvate decarboxylase assay (coupled reaction with alcohol dehydrogenase, absorbance at 340 nm)
Type: biochemical
Settings: 100 ng of GDC-1 protein
Protocol: 100 ng of GDC-1 protein was tested for activity in a standard pyruvate decarboxylase assay (Gounaris et al. (1971) J. of Biol. Chem. 246:1302-1309). This assay is a coupled reaction, wherein the first step the pyruvate decarboxylase (PDC) converts pyruvate to acetaldehyde and CO2. The acetaldehyde produced in this reaction is a substrate for alcohol dehydrogenase, which converts acetaldehyde and β-NADH to ethanol and β-NAD. Thus, PDC activity is detected by virtue of utilization of β-NADH as decrease in absorbance at 340 nm in a spectrophotometer. GDC-1 as well as a control enzyme (pyruvate decarboxylase, Sigma) were tested in this assay.

B1: GDC-1: glyphosate resistance-conferring decarboxylase from fungal strain ATX6394, SEQ ID NO:19; purified as 6×His-tagged protein (protein)
chain: MASINIRVQNLEQPMDVAEYLFRRLHEIGIRSIHGLPGDYNPLALDYLPSCGLRWVGSVNELNAAYAADGYARVKQMGALITTFGVGELSAINGVAGAFSEHVPVVHIVGCPSTASQRNGMLLHHTLGNGDFNIFANMSAQISCEVAKLTNPAEIATQIDHALRVCFIRSRPVYIMLPTDMVQAKVEGARLKEPIDLSEPPNDPEKEAYVVDVVLKYLRAAKNPVILVDACAIRHRVLDEVHDLIEKTNLPVFVTPMGKGAVNEEHPTYGGVYAGDGSHPPQVKDMVESSDLILTIGALKSDFNTAGFSYRTSQLNTIDLHSDHCIVKYSTYPGVQMRGVLRQVIKQLDASEINAQPAPVVENEVAKNRDNSPVITQAFFWPRVGEFLKKNDIVITETGTANFGIWDTKFPSGVTALSQVLWGSIGWSVGACQGAVLAAADDNSDRRTILFVGDGSFQLTAQELSTMIRLKLKPIIFVICNDGFTIERFIHGMEAEYNDIANWDFKALVDVFGGSKTAKKFAVKTKDELDSLLTDPTFNAAECLQFVELYMPKEDAPRALIMTAEASARNNAKTE
modifications: 6xHis tag; Fungal isolate from soil sample
notes: purified as 6×His-tagged protein
For B1, which Pyruvate decarboxylase activity is on record?
Its Pyruvate decarboxylase activity is “showed activity as a pyruvate decarboxylase”.
